Earlier results on one substance are cited in PMC4016011.

pKd: −log10 of the molar value.

The pKd is the Kd on a negative log10 scale, so that one unit is a factor of ten.

In this data set the target is neuronal nitric oxide synthase PDZ (UniProt P29475).
neuronal nitric oxide synthase PDZ, sequence (P29475 17-99): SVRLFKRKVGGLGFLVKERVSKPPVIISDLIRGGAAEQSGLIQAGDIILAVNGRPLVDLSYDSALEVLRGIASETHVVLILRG

syntrophin PDZ, sequence (Q13424 87-170): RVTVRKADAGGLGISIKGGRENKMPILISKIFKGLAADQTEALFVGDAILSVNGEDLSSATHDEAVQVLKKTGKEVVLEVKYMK

Turning to syntrophin PDZ (from UniProt Q13424), the pKd is 6.22.
